Source: the supplement of paper PMC7877785
± gives the uncertainty stated by the source.

Assay: self-splicing fitness, log relative to wild type (ln ratio); higher = more splicing; Tetrahymena group I intron in knt gene, E. coli kanamycin selection, DiMSum; sequences stand for … in CUCUCU…GGAGGGAAAAGUUAUCAGGCAUGCACCUGGUAGCUAGUCUUUAAACCAAUAGAUUGCAUCGGUUUAAAAGGCAAGACCGUCAAAUUGCGGGAAAGGGGUCAACAGCCGUUCAGUACCAAGUCUCAGGGGAAACUUUGAGAUGGCCUUGCAAAGGGUAUGGUAAUAAGCUGACGGACAUGGUCCUAACCACGCAGCCAAGUCCUAAGUCAACAGAUCUUCUGUUGAUAUGGAUGCAGUUCACAGACUAAAUGUCGGUCGGGGAAGAUGUAUUCUUCUCAUAAGAUAUAGUCGGACCUCUCCUUAAUGGGAGCUAGCGGAUGAAGUGAUGCAACACUGGAGCCGCUGGGAACUAAUUUGUAUGCGAAAGUAUAUUGAUUAGUUUUGGAGUACUCGUGGUCG
How it was run: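 Colonies from six replicate transformations of E. coli BL21(DE3) were pooled and amplicon-sequenced on an Illumina HiSeq 2500. The library placed an intron with all eight P1ex-region nucleotides randomised inside the knt kanamycin-resistance gene on pET-22b(+), and cells grew overnight at 37°C or 30°C on LB agar with or without 25 μg/mL kanamycin (plus 100 μg/mL carbenicillin, 50 μM IPTG, 0.2% rhamnose). Fitness is the DiMSum error-weighted combination of wild-type-normalised replicate fold changes, kanamycin versus none.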

Sequence | self-splicing fitness (ln) (30 °C) | self-splicing fitness (ln) (37 °C)
GUAUAGCAAUAUUACGUGGG | -3.28 ± 0.16 | -1.88 ± 0.14
GUCAAGCAAUAUUACGAAAC | -1.37 ± 0.27 | 0.108 ± 0.3
GUCAAGCAAUAUUACGAAGA | -3.88 ± 0.28 | 
GUCAAGCAAUAUUACGACUG | -4.59 ± 0.27 | -4.75 ± 0.45
GUCAAGCAAUAUUACGAGAU | -5.3 ± 0.38 | -3.28 ± 0.2
GUCAAGCAAUAUUACGAGCC | -4.32 ± 0.25 | -2.26 ± 0.26
GUCAAGCAAUAUUACGAUCU | -2.31 ± 0.067 | -1.04 ± 0.068
GUCAAGCAAUAUUACGAUUG |  | -3.59 ± 0.34
GUCAAGCAAUAUUACGCAAU | -2 ± 0.061 | -1.32 ± 0.076
GUCAAGCAAUAUUACGCACA | -1.21 ± 0.12 | -0.776 ± 0.13
GUCAAGCAAUAUUACGCCGA | -3.33 ± 0.45 | -1.08 ± 0.18
GUCAAGCAAUAUUACGCGGU | -3.16 ± 0.39 | -1.82 ± 0.31
GUCAAGCAAUAUUACGGAUG | -2.64 ± 0.12 | -0.795 ± 0.11
GUCAAGCAAUAUUACGGGGC | -5.02 ± 0.45 | -3.14 ± 0.27
GUCAAGCAAUAUUACGGUAA | -1.28 ± 0.18 | -0.000783 ± 0.17
GUCAAGCAAUAUUACGGUGC | -2.35 ± 0.12 | -1.72 ± 0.18
GUCAAGCAAUAUUACGUAGA | -2.04 ± 0.1 | -1.17 ± 0.12
GUCAAGCAAUAUUACGUAGC | -1.55 ± 0.12 | -1.07 ± 0.15
GUCAAGCAAUAUUACGUCGC | -3.74 ± 0.21 | -2.13 ± 0.19
GUCAAGCAAUAUUACGUCGG |  | -1.88 ± 0.18
GUCAAGCAAUAUUACGUGGA | -2.86 ± 0.17 | -1.58 ± 0.12
GUCAAGCAAUAUUACGUGUA | -1.8 ± 0.062 | -0.887 ± 0.072
GUCAAGCAAUAUUACGUUUA | -1.92 ± 0.096 | -0.845 ± 0.091
GUCAAGCAAUAUUACGUUUG |  | -3.38 ± 0.2
GUCCAGCAAUAUUACGAACA | -1.83 ± 0.15 | -0.801 ± 0.12

Sequence | self-splicing fitness (ln) (30 °C) | self-splicing fitness (ln) (37 °C)
GUCCAGCAAUAUUACGAAGC | -0.345 ± 0.072 | -0.167 ± 0.085
GUCCAGCAAUAUUACGAAGG | -1.34 ± 0.24 | -1.66 ± 0.28
GUCCAGCAAUAUUACGAAUG | -2.65 ± 0.17 | -1.31 ± 0.15
GUCCAGCAAUAUUACGACCC | -0.218 ± 0.18 | 0.168 ± 0.21
GUCCAGCAAUAUUACGAUUU | -0.323 ± 0.064 | 0.653 ± 0.067
GUCCAGCAAUAUUACGCACG | -2.07 ± 0.21 | -0.825 ± 0.13
GUCCAGCAAUAUUACGCGCA | -0.0872 ± 0.1 | 0.23 ± 0.11
GUCCAGCAAUAUUACGCGGA | -3.96 ± 0.25 | -4.4 ± 0.46
GUCCAGCAAUAUUACGGCCA | -0.678 ± 0.13 | -0.279 ± 0.14
GUCCAGCAAUAUUACGGUUU | -0.181 ± 0.052 | 0.389 ± 0.064
GUCCAGCAAUAUUACGUAAA | -0.484 ± 0.081 | 0.338 ± 0.12
GUCCAGCAAUAUUACGUAGA | -0.646 ± 0.064 | -0.201 ± 0.086
GUCCAGCAAUAUUACGUAGC | -0.399 ± 0.062 | -0.149 ± 0.075
GUCCAGCAAUAUUACGUCAA | -1.23 ± 0.12 | -1.99 ± 0.14
GUCGAGCAAUAUUACGAGCA | -1.76 ± 0.3 | 
GUCGAGCAAUAUUACGAUGG | -3.01 ± 0.28 | -1.85 ± 0.18
GUCGAGCAAUAUUACGCAUC | -2.31 ± 0.26 | -0.574 ± 0.22
GUCGAGCAAUAUUACGCCAG |  | -2 ± 0.43
GUCGAGCAAUAUUACGCCCG | -2.96 ± 0.48 | -2.03 ± 0.4
GUCGAGCAAUAUUACGCUCU | -1.61 ± 0.24 | -1.39 ± 0.23
GUCGAGCAAUAUUACGCUGC |  | -1.97 ± 0.48
GUCGAGCAAUAUUACGGAAG | -3.26 ± 0.26 | -2.35 ± 0.28
GUCGAGCAAUAUUACGGCCA | -1.28 ± 0.36 | -0.721 ± 0.27
GUCGAGCAAUAUUACGGCGG |  | -2.67 ± 0.41
GUCGAGCAAUAUUACGGCUG | -2.54 ± 0.25 | -1.7 ± 0.39

Sequence | self-splicing fitness (ln) (30 °C) | self-splicing fitness (ln) (37 °C)
GUCGAGCAAUAUUACGGUGA | -2.64 ± 0.15 | -1.91 ± 0.2
GUCGAGCAAUAUUACGUGCC | -2.63 ± 0.29 | 
GUCGAGCAAUAUUACGUGGC | -3.63 ± 0.2 | -1.09 ± 0.17
GUCGAGCAAUAUUACGUGUG | -0.922 ± 0.12 | -0.585 ± 0.17
GUCGAGCAAUAUUACGUUAG | -2.95 ± 0.27 | -1.2 ± 0.2
GUCGAGCAAUAUUACGUUGA | -2.98 ± 0.16 | -3.79 ± 0.34
GUCGAGCAAUAUUACGUUGG | -1.9 ± 0.16 | -2.95 ± 0.47
GUCUAGCAAUAUUACGAGUA | -1.19 ± 0.21 | -1.39 ± 0.22
GUCUAGCAAUAUUACGAUAC | 0.218 ± 0.22 | -0.815 ± 0.22
GUCUAGCAAUAUUACGAUGU | -1.11 ± 0.074 | 0.257 ± 0.086
GUCUAGCAAUAUUACGAUUG |  | -2.14 ± 0.26
GUCUAGCAAUAUUACGCACG | -1.27 ± 0.18 | -1.14 ± 0.18
GUCUAGCAAUAUUACGCAUG | -0.786 ± 0.1 | -0.64 ± 0.16
GUCUAGCAAUAUUACGCUAA | -0.815 ± 0.091 | 0.163 ± 0.093
GUCUAGCAAUAUUACGGCAA | -1.61 ± 0.25 | 0.441 ± 0.17
GUCUAGCAAUAUUACGGGGU | -3.56 ± 0.19 | -2.04 ± 0.13
GUCUAGCAAUAUUACGUAAG | -1.02 ± 0.099 | -0.654 ± 0.13
GUCUAGCAAUAUUACGUGAU | -1.04 ± 0.09 | -0.766 ± 0.1
GUCUAGCAAUAUUACGUGCG | -1.76 ± 0.11 | -1.27 ± 0.12
GUCUAGCAAUAUUACGUGGG | -2.01 ± 0.12 | -1.64 ± 0.16
GUCUAGCAAUAUUACGUGGU | -2.5 ± 0.09 | -0.907 ± 0.078
GUCUAGCAAUAUUACGUUAA | -0.894 ± 0.097 | -0.331 ± 0.094
GUGAAGCAAUAUUACGACAA | 0.0822 ± 0.12 | 0.396 ± 0.16
GUGAAGCAAUAUUACGACGA | 0.184 ± 0.15 | 0.158 ± 0.22
GUGAAGCAAUAUUACGAGGC | -2.59 ± 0.25 | -1.1 ± 0.22

Sequence | self-splicing fitness (ln) (30 °C) | self-splicing fitness (ln) (37 °C)
GUGAAGCAAUAUUACGAUCC | -3.08 ± 0.31 | 0.244 ± 0.18
GUGAAGCAAUAUUACGAUUG | -1.38 ± 0.11 | -1.78 ± 0.14
GUGAAGCAAUAUUACGCAAC | -2.59 ± 0.17 | -2.08 ± 0.22
GUGAAGCAAUAUUACGCACA | 0.0998 ± 0.15 | 0.512 ± 0.18
GUGAAGCAAUAUUACGCACG | -0.996 ± 0.12 | -0.777 ± 0.13
GUGAAGCAAUAUUACGCAUA | -0.646 ± 0.15 | -0.0533 ± 0.17
GUGAAGCAAUAUUACGCCGC | -2.25 ± 0.16 | -1.5 ± 0.26
GUGAAGCAAUAUUACGCCUG | -0.422 ± 0.091 | 0.015 ± 0.13
GUGAAGCAAUAUUACGCGUA | -0.298 ± 0.14 | 0.0699 ± 0.14
GUGAAGCAAUAUUACGCUCU | -1.79 ± 0.12 | -0.652 ± 0.13
GUGAAGCAAUAUUACGGAUA | -1.37 ± 0.096 | -1.13 ± 0.1
GUGAAGCAAUAUUACGGCCG | -1.03 ± 0.13 | -0.435 ± 0.17
GUGAAGCAAUAUUACGGCGC | -0.501 ± 0.17 | -0.89 ± 0.14
GUGAAGCAAUAUUACGGGAC | -1.8 ± 0.12 | -0.623 ± 0.13
GUGAAGCAAUAUUACGGUAA | -0.519 ± 0.073 | -0.169 ± 0.1
GUGAAGCAAUAUUACGUAUC | -1.08 ± 0.059 | 0.384 ± 0.068
GUGAAGCAAUAUUACGUCAC |  | -2.47 ± 0.48
GUGAAGCAAUAUUACGUCAU | -3.04 ± 0.2 | -2.68 ± 0.28
GUGAAGCAAUAUUACGUCUA | 0.147 ± 0.049 | 0.251 ± 0.066
GUGAAGCAAUAUUACGUGUG | -0.934 ± 0.089 | -0.737 ± 0.11
GUGAAGCAAUAUUACGUUAU | -1.15 ± 0.08 | -1.2 ± 0.11
GUGAAGCAAUAUUACGUUCA | -1.45 ± 0.078 | -0.809 ± 0.09
GUGAAGCAAUAUUACGUUCU | -0.0481 ± 0.072 | -0.218 ± 0.086
